According to IntAct's records for PubMed 22345554:

B1: Bile acid receptor (Homo sapiens), Q96RI1 (parent)
chain: MVMQFQGLENPIQISPHCSCTPSGFFMEMMSMKPAKGVLTEQVAGPLGQNLEVEPYSQYSNVQFPQVQPQISSSSYYSNLGFYPQQPEEWYSPGIYELRRMPAETLYQGETEVAEMPVTKKPRMGASAGRIKGDELCVVCGDRASGYHYNALTCEGCKGFFRRSITKNAVYKCKNGGNCVMDMYMRRKCQECRLRKCKEMGMLAECMYTGLLTEIQCKSKRLRKNVKQHADQTVNEDSEGRDLRQVTSTTKSCREKTELTPDQQTLLHFIMDSYNKQRMPQEITNKILKEEFSAEENFLILTEMATNHVQVLVEFTKKLPGFQTLDHEDQIALLKGSAVEAMFLRSAEIFNKKLPSGHSDLLEERIRNSGISDEYITPMFSFYKSIGELKMTQEEYALLTAIVILSPDRQYIKDREAVEKLQEPLLDVLQKLCKIHQPENPQHFACLLGRLTELRTFNHHHAEMLMSWRVNDHKFTPLLCEIWDVQ
partner: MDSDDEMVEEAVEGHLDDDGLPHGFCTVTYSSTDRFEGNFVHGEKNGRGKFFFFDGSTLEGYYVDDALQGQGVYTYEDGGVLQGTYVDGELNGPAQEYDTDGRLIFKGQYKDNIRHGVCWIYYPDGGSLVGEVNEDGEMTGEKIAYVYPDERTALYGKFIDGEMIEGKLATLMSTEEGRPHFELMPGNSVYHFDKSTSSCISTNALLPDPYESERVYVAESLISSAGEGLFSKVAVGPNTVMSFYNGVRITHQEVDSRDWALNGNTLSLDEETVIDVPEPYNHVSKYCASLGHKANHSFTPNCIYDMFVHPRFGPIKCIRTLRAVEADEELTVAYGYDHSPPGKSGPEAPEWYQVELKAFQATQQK

Variants of: B1
Conditions: with setd7_human SETD7, Q8WTS6

Variant | effect of a mutation on the interaction
K220R | decreasing interaction
